The source of these data is paper PMC12416549 (2024).

The chains are these.
B1: A46N (designed binder)
chain: SMEEEVEKAAKEYEKKKKEAIEKHLEKLKAKDKEAAERFLKELEENAKEYAKDEAKTMSEEEAKRRAKKYKEKVLLSELSEEEQKEIKEAEEKLVRTILKYVEEAAK
B2: L76E (designed binder)
chain: SMEEEVEKAAKEYEKKKKEAIEKHLEKLKAKDKEAAERFLKELEEAAKEYAKDEAKTMSEEEAKRRAKKYKEKVLESELSEEEQKEIKEAEEKLVRTILKYVEEAAK
B3: E61K (designed binder)
chain: SMEEEVEKAAKEYEKKKKEAIEKHLEKLKAKDKEAAERFLKELEEAAKEYAKDEAKTMSEKEAKRRAKKYKEKVLLSELSEEEQKEIKEAEEKLVRTILKYVEEAAK
B4: K107C (designed binder)
chain: SMEEEVEKAAKEYEKKKKEAIEKHLEKLKAKDKEAAERFLKELEEAAKEYAKDEAKTMSEEEAKRRAKKYKEKVLLSELSEEEQKEIKEAEEKLVRTILKYVEEAAC
B5: D32Q (designed binder)
chain: SMEEEVEKAAKEYEKKKKEAIEKHLEKLKAKQKEAAERFLKELEEAAKEYAKDEAKTMSEEEAKRRAKKYKEKVLLSELSEEEQKEIKEAEEKLVRTILKYVEEAAK
B6: E83F (designed binder)
chain: SMEEEVEKAAKEYEKKKKEAIEKHLEKLKAKDKEAAERFLKELEEAAKEYAKDEAKTMSEEEAKRRAKKYKEKVLLSELSEEFQKEIKEAEEKLVRTILKYVEEAAK
B7: K64Q (designed binder)
chain: SMEEEVEKAAKEYEKKKKEAIEKHLEKLKAKDKEAAERFLKELEEAAKEYAKDEAKTMSEEEAQRRAKKYKEKVLLSELSEEEQKEIKEAEEKLVRTILKYVEEAAK
B8: K31Y (designed binder)
chain: SMEEEVEKAAKEYEKKKKEAIEKHLEKLKAYDKEAAERFLKELEEAAKEYAKDEAKTMSEEEAKRRAKKYKEKVLLSELSEEEQKEIKEAEEKLVRTILKYVEEAAK
B9: K48M (designed binder)
chain: SMEEEVEKAAKEYEKKKKEAIEKHLEKLKAKDKEAAERFLKELEEAAMEYAKDEAKTMSEEEAKRRAKKYKEKVLLSELSEEEQKEIKEAEEKLVRTILKYVEEAAK
B10: S1L (designed binder)
chain: LMEEEVEKAAKEYEKKKKEAIEKHLEKLKAKDKEAAERFLKELEEAAKEYAKDEAKTMSEEEAKRRAKKYKEKVLLSELSEEEQKEIKEAEEKLVRTILKYVEEAAK
B11: V6C (designed binder)
chain: SMEEECEKAAKEYEKKKKEAIEKHLEKLKAKDKEAAERFLKELEEAAKEYAKDEAKTMSEEEAKRRAKKYKEKVLLSELSEEEQKEIKEAEEKLVRTILKYVEEAAK
B12: E45V (designed binder)
chain: SMEEEVEKAAKEYEKKKKEAIEKHLEKLKAKDKEAAERFLKELEVAAKEYAKDEAKTMSEEEAKRRAKKYKEKVLLSELSEEEQKEIKEAEEKLVRTILKYVEEAAK
B13: L79W (designed binder)
chain: SMEEEVEKAAKEYEKKKKEAIEKHLEKLKAKDKEAAERFLKELEEAAKEYAKDEAKTMSEEEAKRRAKKYKEKVLLSEWSEEEQKEIKEAEEKLVRTILKYVEEAAK
B14: I21N (designed binder)
chain: SMEEEVEKAAKEYEKKKKEANEKHLEKLKAKDKEAAERFLKELEEAAKEYAKDEAKTMSEEEAKRRAKKYKEKVLLSELSEEEQKEIKEAEEKLVRTILKYVEEAAK
B15: E83I (designed binder)
chain: SMEEEVEKAAKEYEKKKKEAIEKHLEKLKAKDKEAAERFLKELEEAAKEYAKDEAKTMSEEEAKRRAKKYKEKVLLSELSEEIQKEIKEAEEKLVRTILKYVEEAAK
B16: K88D (designed binder)
chain: SMEEEVEKAAKEYEKKKKEAIEKHLEKLKAKDKEAAERFLKELEEAAKEYAKDEAKTMSEEEAKRRAKKYKEKVLLSELSEEEQKEIDEAEEKLVRTILKYVEEAAK
B17: E34P (designed binder)
chain: SMEEEVEKAAKEYEKKKKEAIEKHLEKLKAKDKPAAERFLKELEEAAKEYAKDEAKTMSEEEAKRRAKKYKEKVLLSELSEEEQKEIKEAEEKLVRTILKYVEEAAK
B18: F39M (designed binder)
chain: SMEEEVEKAAKEYEKKKKEAIEKHLEKLKAKDKEAAERMLKELEEAAKEYAKDEAKTMSEEEAKRRAKKYKEKVLLSELSEEEQKEIKEAEEKLVRTILKYVEEAAK
B19: K33C (designed binder)
chain: SMEEEVEKAAKEYEKKKKEAIEKHLEKLKAKDCEAAERFLKELEEAAKEYAKDEAKTMSEEEAKRRAKKYKEKVLLSELSEEEQKEIKEAEEKLVRTILKYVEEAAK
B20: K71M (designed binder)
chain: SMEEEVEKAAKEYEKKKKEAIEKHLEKLKAKDKEAAERFLKELEEAAKEYAKDEAKTMSEEEAKRRAKKYMEKVLLSELSEEEQKEIKEAEEKLVRTILKYVEEAAK
B21: Q84V (designed binder)
chain: SMEEEVEKAAKEYEKKKKEAIEKHLEKLKAKDKEAAERFLKELEEAAKEYAKDEAKTMSEEEAKRRAKKYKEKVLLSELSEEEVKEIKEAEEKLVRTILKYVEEAAK
B22: E62H (designed binder)
chain: SMEEEVEKAAKEYEKKKKEAIEKHLEKLKAKDKEAAERFLKELEEAAKEYAKDEAKTMSEEHAKRRAKKYKEKVLLSELSEEEQKEIKEAEEKLVRTILKYVEEAAK
B23: E61V (designed binder)
chain: SMEEEVEKAAKEYEKKKKEAIEKHLEKLKAKDKEAAERFLKELEEAAKEYAKDEAKTMSEVEAKRRAKKYKEKVLLSELSEEEQKEIKEAEEKLVRTILKYVEEAAK
B24: E49V (designed binder)
chain: SMEEEVEKAAKEYEKKKKEAIEKHLEKLKAKDKEAAERFLKELEEAAKVYAKDEAKTMSEEEAKRRAKKYKEKVLLSELSEEEQKEIKEAEEKLVRTILKYVEEAAK
B25: A30S (designed binder)
chain: SMEEEVEKAAKEYEKKKKEAIEKHLEKLKSKDKEAAERFLKELEEAAKEYAKDEAKTMSEEEAKRRAKKYKEKVLLSELSEEEQKEIKEAEEKLVRTILKYVEEAAK
B26: A30N (designed binder)
chain: SMEEEVEKAAKEYEKKKKEAIEKHLEKLKNKDKEAAERFLKELEEAAKEYAKDEAKTMSEEEAKRRAKKYKEKVLLSELSEEEQKEIKEAEEKLVRTILKYVEEAAK
B27: I87C (designed binder)
chain: SMEEEVEKAAKEYEKKKKEAIEKHLEKLKAKDKEAAERFLKELEEAAKEYAKDEAKTMSEEEAKRRAKKYKEKVLLSELSEEEQKECKEAEEKLVRTILKYVEEAAK
B28: E34R (designed binder)
chain: SMEEEVEKAAKEYEKKKKEAIEKHLEKLKAKDKRAAERFLKELEEAAKEYAKDEAKTMSEEEAKRRAKKYKEKVLLSELSEEEQKEIKEAEEKLVRTILKYVEEAAK
B29: A35D (designed binder)
chain: SMEEEVEKAAKEYEKKKKEAIEKHLEKLKAKDKEDAERFLKELEEAAKEYAKDEAKTMSEEEAKRRAKKYKEKVLLSELSEEEQKEIKEAEEKLVRTILKYVEEAAK
B30: K64I (designed binder)
chain: SMEEEVEKAAKEYEKKKKEAIEKHLEKLKAKDKEAAERFLKELEEAAKEYAKDEAKTMSEEEAIRRAKKYKEKVLLSELSEEEQKEIKEAEEKLVRTILKYVEEAAK
B31: L28Y (designed binder)
chain: SMEEEVEKAAKEYEKKKKEAIEKHLEKYKAKDKEAAERFLKELEEAAKEYAKDEAKTMSEEEAKRRAKKYKEKVLLSELSEEEQKEIKEAEEKLVRTILKYVEEAAK
B32: E5D (designed binder)
chain: SMEEDVEKAAKEYEKKKKEAIEKHLEKLKAKDKEAAERFLKELEEAAKEYAKDEAKTMSEEEAKRRAKKYKEKVLLSELSEEEQKEIKEAEEKLVRTILKYVEEAAK
B33: A63C (designed binder)
chain: SMEEEVEKAAKEYEKKKKEAIEKHLEKLKAKDKEAAERFLKELEEAAKEYAKDEAKTMSEEECKRRAKKYKEKVLLSELSEEEQKEIKEAEEKLVRTILKYVEEAAK

The experiment addresses T1, TNFR1 (Homo sapiens, UniProt P19438).
T1 chain: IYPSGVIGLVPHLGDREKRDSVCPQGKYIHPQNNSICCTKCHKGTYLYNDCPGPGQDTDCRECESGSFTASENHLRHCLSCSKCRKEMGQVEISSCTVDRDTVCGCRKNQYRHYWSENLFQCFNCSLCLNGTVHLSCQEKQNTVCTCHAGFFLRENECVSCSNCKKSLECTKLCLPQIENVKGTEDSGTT
The experiment is described as follows: yeast display SC50.
Turning to B1, the “apparent Kd (screen)” value stood at 1.69 nM.
As to B2, the “apparent Kd (screen)” value worked out at 2.48 nM.
Take B3: the “apparent Kd (screen)” value turned out to be 1.69 nM.
For B4, the “apparent Kd (screen)” value worked out at 2.73 nM.
As for B5, the “apparent Kd (screen)” value stood at 1.16 nM.
Turning to B6, the “apparent Kd (screen)” value was 2.05 nM.
As to B7, the “apparent Kd (screen)” value came out at 0.446 nM.
As for B8, the “apparent Kd (screen)” value came to 0.49 nM.
Regarding B9, the “apparent Kd (screen)” value is 0.653 nM.
As for B10, the “apparent Kd (screen)” value is 1.4 nM.
In the case of B11, the “apparent Kd (screen)” value was 1.27 nM.
Regarding B12, the “apparent Kd (screen)” value worked out at 1.86 nM.
In the case of B13, the “apparent Kd (screen)” value is 6.43 nM.
For B14, the “apparent Kd (screen)” value is 1.69 nM.
As for B15, the “apparent Kd (screen)” value was found to be 0.446 nM.
Turning to B16, the “apparent Kd (screen)” value is 0.446 nM.
As to B17, the “apparent Kd (screen)” value is 0.653 nM.
In the case of B18, the “apparent Kd (screen)” value stood at 3 nM.
Regarding B19, the “apparent Kd (screen)” value worked out at 0.653 nM.
Consider B20, for which the “apparent Kd (screen)” value stood at 3 nM.
B21: the “apparent Kd (screen)” value is 3 nM.
For the molecule B22, the “apparent Kd (screen)” value was 0.79 nM.
For the molecule B23, the “apparent Kd (screen)” value is 1.16 nM.
Turning to B24, the “apparent Kd (screen)” value amounted to 10.4 nM.
Regarding B25, the “apparent Kd (screen)” value came to 0.718 nM.
On to B26, for which the “apparent Kd (screen)” value amounted to 0.79 nM.
On to B27, for which the “apparent Kd (screen)” value came to 3.3 nM.
The figure for B28 is 0.446 nM.
For B29, the “apparent Kd (screen)” value was 2.25 nM.
As for B30, the “apparent Kd (screen)” value amounted to 1.05 nM.
The figure for B31 is 0.446 nM; for B32 it is 0.653 nM.
As for B33, the “apparent Kd (screen)” value came to 26.9 nM.
